Paper PMC9604360 (2022)

Molecular target: T1, Ribonuclease A (scrambled, oxidized) (Bos taurus, UniProt P61823)
T1 chain: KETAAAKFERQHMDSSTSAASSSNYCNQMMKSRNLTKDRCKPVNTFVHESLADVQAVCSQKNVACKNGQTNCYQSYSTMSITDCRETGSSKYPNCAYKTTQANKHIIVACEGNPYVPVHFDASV
Experiment: intrinsic fluorescence quenching

Kd: ~300 nM
B1: MET 25-932 (protein)
chain: ECKEALAKSEMNVNMKYQLPNFTAETPIQNVILHEHHIFLGATNYIYVLNEEDLQKVAEYKTGPVLEHPDCFPCQDCSSKANLSGGVWKDNINMALVVDTYYDDQLISCGSVNRGTCQRHVFPHNHTADIQSEVHCIFSPQIEEPSQCPDCVVSALGAKVLSSVKDRFINFFVGNTINSSYFPDHPLHSISVRRLKETKDGFMFLTDQSYIDVLPEFRDSYPIKYVHAFESNNFIYFLTVQRETLDAQTFHTRIIRFCSINSGLHSYMEMPLECILTEKRKKRSTKKEVFNILQAAYVSKPGAQLARQIGASLNDDILFGVFAQSKPDSAEPMDRSAMCAFPIKYVNDFFNKIVNKNNVRCLQHFYGPNHEHCFNRTLLRNSSGCEARRDEYRTEFTTALQRVDLFMGQFSEVLLTSISTFIKGDLTIANLGTSEGRFMQVVVSRSGPSTPHVNFLLDSHPVSPEVIVEHTLNQNGYTLVITGKKITKIPLNGLGCRHFQSCSQCLSAPPFVQCGWCHDKCVRSEECLSGTWTQQICLPAIYKVFPNSAPLEGGTRLTICGWDFGFRRNNKFDLKKTRVLLGNESCTLTLSESTMNTLKCTVGPAMNKHFNMSIIISNGHGTTQYSTFSYVDPVITSISPKYGPMAGGTLLTLTGNYLNSGNSRHISIGGKTCTLKSVSNSILECYTPAQTISTEFAVKLKIDLANRETSIFSYREDPIVYEIHPTKSFISGGSTITGVGKNLNSVSVPRMVINVHEAGRNFTVACQHRSNSEIICCTTPSLQQLNLQLPLKTKAFFMLDGILSKYFDLIYVHNPVFKPFEKPVMISMGNENVLEIKGNDIDPEAVKGEVLKVGNKSCENIHLHSEAVLCTVPNDLLKLNSELNIEWKQAISSTVLGKVIVQPDQNFT
modifications: scrambled disulfides of RNase A
